Data from paper PMC10244618.
Values joined by “and” are separate entries in the source; they are usually repeats but may differ in a detail not shown here. Equal entries are not always repeated.

B1: NF2 (merlin) isoform 7, human, full length (507 aa, lacks exons 2-3 = isoform-1 residues 39-121; exon-16 C-terminus), P35240-4 (parent)
chain: MAGAIASRMSFSSLKRKQPKTFTVRIVTMDAEMEFNCEVKKQILDEKIYCPPEASVLLASYAVQAKYGDYDPSVHKRGFLAQEELLPKRVINLYQMTPEMWEERITAWYAEHRGRARDEAEMEYLKIAQDLEMYGVNYFAIRNKKGTELLLGVDALGLHIYDPENRLTPKISFPWNEIRNISYSDKEFTIKPLDKKIDVFKFNSSKLRVNKLILQLCIGNHDLFMRRRKADSLEVQQMKAQAREEKARKQMERQRLAREKQMREEAERTRDELERRLLQMKEEATMANEALMRSEETADLLAEKAQITEEEAKLLAQKAAEAEQEMQRIKATAIRTEEEKRLMEQKVLEAEVLALKMAEESERRAKEADQLKQDLQEAREAERRAKQKLLEIATKPTYPPMNPIPAPLPPDIPSFNLIGDSLSFDFKDTDMKRLSMEIEKEKVEYMEKSKHLQEQLNELKTEIEALKLKERETALDILHNENSDRGGSSKHNTIKKPQAQGRRPICI

Variants of: B1
Test: reverse yeast two-hybrid deep mutational scan (rY2H-seq): NF2 isoform 7 mutant library as bait mated with wild-type prey strains; selection on medium lacking adenine for non-interacting pairs; NextSeq paired-end sequencing; enrichment vs …
Settings: with PIK3R3 (phosphatidylinositol 3-kinase regulatory subunit gamma), Q92569; yeast diploids after mating (RBait_S3 x RPrey_S3), 30 °C, selection for reporter genes on NB agar; human tyrosine kinase ABL2 co-expressed as the active kinase …; HIGHER = WEAKER BINDING (the opposite of display enrichments): higher = stronger loss of interaction: reverse Y2H selects yeast in which bait and prey do NOT interact (growth without adenine), so a …; hits-only table; scale: rY2H score; numbering: uniprot, sequence starts at 1

Variant	enrichment
S204F	3.76 and 3.21
L57F	1.98
I213F	15.3

Same assay, conditions: with EMILIN1 (elastin microfibril interfacer 1), Q9Y6C2; yeast diploids after mating (RBait_S3 x RPrey_S3), 30 °C, selection for reporter genes on NB agar; human ABL2 co-expressed as the kinase-dead K35M mutant …; HIGHER = WEAKER BINDING (the opposite of display enrichments): higher = stronger loss of interaction: reverse Y2H selects yeast in which bait and prey do NOT interact (growth without adenine), so a …; hits-only table; scale: rY2H score; numbering: uniprot, sequence starts at 1

Variant	enrichment
A406F	10.8
I213F	7.19 and 3.36
S172F	1.58

Same assay, conditions: with EMILIN1 (elastin microfibril interfacer 1), Q9Y6C2; yeast diploids after mating (RBait_S3 x RPrey_S3), 30 °C, selection for reporter genes on NB agar; human tyrosine kinase ABL2 co-expressed as the active kinase …; HIGHER = WEAKER BINDING (the opposite of display enrichments): higher = stronger loss of interaction: reverse Y2H selects yeast in which bait and prey do NOT interact (growth without adenine), so a …; hits-only table; scale: rY2H score; numbering: uniprot, sequence starts at 1

Variant	enrichment
I213F	3.35
N402F	4.91
I505F	1.61

Same assay, conditions: with KDM1A (lysine-specific histone demethylase 1A; the table's label AOF2 is a gene synonym of KDM1A), O60341; yeast diploids after mating (RBait_S3 x RPrey_S3), 30 °C, selection for reporter genes on NB agar; human tyrosine kinase ABL2 co-expressed as the active kinase …; HIGHER = WEAKER BINDING (the opposite of display enrichments): higher = stronger loss of interaction: reverse Y2H selects yeast in which bait and prey do NOT interact (growth without adenine), so a …; hits-only table; scale: rY2H score; numbering: uniprot, sequence starts at 1

Variant	enrichment
I213F	6.76
S60F	3.51
I505F	2.14

Same assay, conditions: with NF2 C-terminal domain (wild type; homomeric NF2-NF2 interaction), P35240; yeast diploids after mating (RBait_S3 x RPrey_S3), 30 °C, selection for reporter genes on NB agar; human ABL2 co-expressed as the kinase-dead K35M mutant …; HIGHER = WEAKER BINDING (the opposite of display enrichments): higher = stronger loss of interaction: reverse Y2H selects yeast in which bait and prey do NOT interact (growth without adenine), so a …; hits-only table; partner unresolved; scale: rY2H score; numbering: uniprot, sequence starts at 1

Variant	enrichment
I213F	4.21
I505F	2.29

Same assay, conditions: with KDM1A (lysine-specific histone demethylase 1A; the table's label AOF2 is a gene synonym of KDM1A), O60341; yeast diploids after mating (RBait_S3 x RPrey_S3), 30 °C, selection for reporter genes on NB agar; human ABL2 co-expressed as the kinase-dead K35M mutant …; HIGHER = WEAKER BINDING (the opposite of display enrichments): higher = stronger loss of interaction: reverse Y2H selects yeast in which bait and prey do NOT interact (growth without adenine), so a …; hits-only table; scale: rY2H score; numbering: uniprot, sequence starts at 1

Variant	enrichment
N402F	24.7
